{
  "source": "paper doi:10.1101/2022.10.13.512040",
  "about": "(bioRxiv, 2022)",
  "binders": {"B1": {"name": "sybody-21 (VHH)", "VHH": "QVQLVESGGGLVQAGGSLRLSCAASGFPVNISWMEWYRQVPGKEREWVAAIQSTGSYTWYADSVKGRFTISRDNAKNTVYLQMNSLKPEDTAVYYCRVKVGAYYRGQGTQVTVSA"}, "B2": {"name": "Arabidopsis thaliana PIN1 (PIN-FORMED 1 auxin transporter) (natural protein)", "chain": "MITAADFYHVMTAMVPLYVAMILAYGSVKWWKIFTPDQCSGINRFVALFAVPLLSFHFIAANNPYAMNLRFLAADSLQKVIVLSLLFLWCKLSRNGSLDWTITLFSLSTLPNTLVMGIPLLKGMYGNFSGDLMVQIVVLQCIIWYTLMLFLFEYRGAKLLISEQFPDTAGSIVSIHVDSDIMSLDGRQPLETEAEIKEDGKLHVTVRRSNASRSDIYSRRSQGLSATPRPSNLTNAEIYSLQSSRNPTPRGSSFNHTDFYSMMASGGGRNSNFGPGEAVFGSKGPTPRPSNYEEDGGPAKPTAAGTAAGAGRFHYQSGGSGGGGGAHYPAPNPGMFSPNTGGGGGTAAKGNAPVVGGKRQDGNGRDLHMFVWSSSASPVSDVFGGGGGNHHADYSTATNDHQKDVKISVPQGNSNDNQYVEREEFSFGNKDDDSKVLATDGGNNISNKTTQAKVMPPTSVMTRLILIMVWRKLIRNPNSYSSLFGITWSLISFKWNIEMPALIAKSISILSDAGLGMAMFSLGLFMALNPRIIACGNRRAAFAAAMRFVVGPAVMLVASYAVGLRGVLLHVAIIQAALPQGIVPFVFAKEYNVHPDILSTAVIFGMLIALPITLLYYILLGL"}},
  "key": {"[1]": {"target": "Arabidopsis thaliana PIN1 (PIN-FORMED 1 auxin transporter) (Arabidopsis thaliana, UniProt Q9C6B8)", "experiment": "cryo-EM structure"}, "[2]": {"target": "the molecule itself", "experiment": "cryo-EM structure"}},
  "data": [
    {"binder": "B1", "values": [
      {"measurement": "binding result", "setting": "[1]", "value": "binds"}
    ]},
    {"binder": "B2", "values": [
      {"measurement": "binding result", "setting": "[2]", "value": "binds"}
    ]}
  ]
}
